{
  "source": "IntAct's records for PubMed 23353789",
  "parents": {"B1": {"name": "Chromosome partition protein Smc (Bacillus subtilis), P51834 (parent)", "chain": "MFLKRLDVIGFKSFAERISVDFVKGVTAVVGPNGSGKSNITDAIRWVLGEQSARSLRGGKMEDIIFAGSDSRKRLNLAEVTLTLDNDDHFLPIDFHEVSVTRRVYRSGESEFLINNQPCRLKDIIDLFMDSGLGKEAFSIISQGKVEEILSSKAEDRRSIFEEAAGVLKYKTRKKKAENKLFETQDNLNRVEDILHELEGQVEPLKIQASIAKDYLEKKKELEHVEIALTAYDIEELHGKWSTLKEKVQMAKEEELAESSAISAKEAKIEDTRDKIQALDESVDELQQVLLVTSEELEKLEGRKEVLKERKKNAVQNQEQLEEAIVQFQQKETVLKEELSKQEAVFETLQAEVKQLRAQVKEKQQALSLHNENVEEKIEQLKSDYFELLNSQASIRNELQLLDDQMSQSAVTLQRLADNNEKHLQERHDISARKAACETEFARIEQEIHSQVGAYRDMQTKYEQKKRQYEKNESALYQAYQYVQQARSKKDMLETMQGDFSGFYQGVKEVLKAKERLGGIRGAVLELISTEQKYETAIEIALGASAQHVVTDDEQSARKAIQYLKQNSFGRATFLPLSVIRDRQLQSRDAETAARHSSFLGVASELVTFDPAYRSVIQNLLGTVLITEDLKGANELAKLLGHRYRIVTLEGDVVNPGGSMTGGAVKKKNNSLLGRSRELEDVTKRLAEMEEKTALLEQEVKTLKHSIQDMEKKLADLRETGEGLRLKQQDVKGQLYELQVAEKNINTHLELYDQEKSALSESDEERKVRKRKLEEELSAVSEKMKQLEEDIDRLTKQKQTQSSTKESLSNELTELKIAAAKKEQACKGEEDNLARLKKELTETELALKEAKEDLSFLTSEMSSSTSGEEKLEEAAKHKLNDKTKTIELIALRRDQRIKLQHGLDTYERELKEMKRLYKQKTTLLKDEEVKLGRMEVELDNLLQYLREEYSLSFEGAKEKYQLETDPEEARKRVKLIKLAIEELGTVNLGSIDEFERVNERYKFLSEQKEDLTEAKNTLFQVIEEMDEEMTKRFNDTFVQIRSHFDQVFRSLFGGGRAELRLTDPNDLLHSGVEIIAQPPGKKLQNLNLLSGGERALTAIALLFSILKVRPVPFCVLDEVEAALDEANVFRFAQYLKKYSSDTQFIVITHRKGTMEEADVLYGVTMQESGVSKVISVKLEETKEFVQ", "partner": "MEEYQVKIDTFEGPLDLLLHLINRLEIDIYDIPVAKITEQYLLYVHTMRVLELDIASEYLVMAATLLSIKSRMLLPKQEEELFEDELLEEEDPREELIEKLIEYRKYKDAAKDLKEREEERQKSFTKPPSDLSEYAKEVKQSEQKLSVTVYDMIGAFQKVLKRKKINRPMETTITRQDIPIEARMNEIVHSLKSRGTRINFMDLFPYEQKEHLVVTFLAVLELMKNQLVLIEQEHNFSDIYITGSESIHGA"}, "B2": {"name": "Segregation and condensation protein A (Bacillus subtilis), P35154 (parent)", "chain": "B1 partner", "partner": "B1 chain"}},
  "data": [
    {"variants_of": "B1", "conditions": "with scpa_bacsu scpA", "values": [
      {"variant": "V1021E", "effect of a mutation on the interaction": "disrupting interaction strength"},
      {"variant": "Y170E", "effect of a mutation on the interaction": "decreasing interaction strength"}
    ]},
    {"variants_of": "B1", "conditions": "with scpa_bacsu scpA", "remark": "another data set of the same source", "values": [
      {"variant": "V1176E", "effect of a mutation on the interaction": "disrupting interaction strength"},
      {"variant": "I1174E", "effect of a mutation on the interaction": "disrupting interaction strength"}
    ]},
    {"variants_of": "B2", "conditions": "with smc_bacsu smc", "values": [
      {"variant": "K70E", "effect of a mutation on the interaction": "disrupting interaction strength"},
      {"variant": "L67E", "effect of a mutation on the interaction": "disrupting interaction strength"},
      {"variant": "L60K", "effect of a mutation on the interaction": "disrupting interaction strength"}
    ]}
  ]
}
